This is an account of results in patent US20110184152A1 (published 2011).

One assay deals with T1, IL-1β.
T1 construct: also called IL-1 beta
Kind of assay: SPR (Biacore), construct captured, IL-1β injected. In general terms: SPR reads the build-up and loss of mass on a sensor chip optically.

The target in assay [1] is T2, human serum albumin (human, UniProt P02768 25-609).
T2 construct: also called HSA; HumanSA
Kind of assay: SPR (Biacore), construct captured, HSA injected.

In assay [2] the target is T2, human serum albumin. Kind of assay: SPR (Biacore), purified construct.
Assay [3] deals with T3, mouse serum albumin (mouse, UniProt P07724 25-608).
T3 construct: also called MSA; MurineSA
Kind of assay: SPR (Biacore), purified construct.

Assay [4] has as its target T2, human serum albumin. Kind of assay: SPR (Biacore), purified construct. This is another data set of the same source.
For assay [5], the target named is T3, mouse serum albumin. Kind of assay: SPR (Biacore), purified construct. This is another data set of the same source.
For assay [6], the target named is T2, human serum albumin. Kind of assay: SPR (Biacore), running buffer pH5.0; pH 5.
Source text: (§1) Covalent immobilisation of the capture antibody was achieved by standard amine coupling chemistry.
Assay [7] addresses T2, human serum albumin. Kind of assay: SPR (Biacore), running buffer pH6.0; pH 6.
Assay [8] concerns the target T2, human serum albumin. Kind of assay: SPR (Biacore), running buffer pH7.0; pH 7.
Source text: as §1
The target of assay [9] is T2, human serum albumin. Kind of assay: SPR (Biacore), running buffer pH5.5; pH 5.5.
Source text: as §1
Assay [10] has as its target T2, human serum albumin. Kind of assay: SPR (Biacore), construct captured from HEK293 supernatant, HSA injected.
Assay [11] addresses T2, human serum albumin. Kind of assay: SPR (BIAcore).
Assay [12] deals with T2, human serum albumin. Kind of assay: affinity as humanised IgG; method not named.
Assay [13] concerns the target T3, mouse serum albumin. Kind of assay: affinity as humanised IgG; method not named.
The target in a further assay is T4, rat serum albumin (rat, UniProt P02770 25-608).
T4 construct: also called RatSA
Kind of assay: affinity as humanised IgG; method not named.

Procedure for IL-1β: as §1
Kinetic parameters were determined by simultaneous global-fitting of the resulting sensorgrams to a standard 1:1 binding model using Biacore T100 Evaluation software.

B1: Fab′A (Fab, V domains shown)
VH: EVQLVESGGGLVQPGGSLRLSCAFSGFSLSTSGVGVGWVRQAPGKGLEWVAHIWWDGDESYNPSLKTQFTISKDTSKNTVYLQMNSLRAEDTAVYYCARNRYDPPWFVDWGQGTLVTVSS
VL: DIQMTQSPSSLSASVGDRVTITCRASQDISNYLSWYQQKPGKAPKLLIYYTSKLHSGVPSRFSGSGSGTDYTLTISSLQPEDFATYYCQQGKMLPWTFGQGTKVEIKR
One may read the Kd as the equilibrium constant for the complex coming apart. The low end stands for tighter binding, the high end for weaker binding. By koff is commonly meant the first-order rate constant of dissociation. Read a low koff as slow dissociation. In general, kon refers to the second-order rate constant of association. Read a high kon as faster complex formation. In the case of B1, in the assay with IL-1β, the Kd turned out to be 0.32 nM, the koff amounted to 6.46e-05 s⁻¹ and the kon worked out at 202000 M⁻¹ s⁻¹.

B2: FabA (Fab, V domains shown)
VH: EVQLVESGGGLVQPGGSLRLSCAFSGFSLSTSGVGVGWVRQAPGKGLEWVAHIWWDGDESYNPSLKTQFTISKDTSKNTVYLQMNSLRAEDTAVYYCARNRYDPPWFVDWGQGTLVTVSS
VL: DIQMTQSPSSLSASVGDRVTITCRASQDISNYLSWYQQKPGKAPKLLIYYTSKLHSGVPSRFSGSGSGTDYTLTISSLQPEDFATYYCQQGKMLPWTFGQGTKVEIKR
On to B2, for which the binding result with human serum albumin [1] is given as “no binding”.

B3: FabB-didAb, -dAbL1 (CK-G4Sx2) & dAbH1 (CH1-G4Sx2) (bispecific antibody)
heavy: ASTKGPSVFPLAPSSKSTSGGTAALGCLVKDYFPEPVTVSWNSGALTSGVHTFPAVLQSSGLYSLSSVVTVPSSSLGTQTYICNVNHKPSNTKVDKKVEPKSCGGGGSGGGGSEVQLLESGGGLVQPGGSLRLSCAVSGIDLSNYAINWVRQAPGKGLEWIGIIWASGTTFYATWAKGRFTISRDSTTVYLQMNSLRAEDTAVYYCARTVPGYSTAPYFDLWGQGTLVTVSS
light: RTVAAPSVFIFPPSDEQLKSGTASVVCLLNNFYPREAKVQWKVDNALQSGNSQESVTEQDSKDSTYSLSSTLTLSKADYEKHKVYACEVTHQGLSSPVTKSFNRGECGGGGSGGGGSDIVMTQSPSSVSASVGDRVTITCQSSPSVWSNFLSWYQQKPGKAPKLLIYEASKLTSGVPSRFKGSGSGTDFTLTISSLQPEDFATYYCGGGYSSISDTTFGGGTKVEIK
notes: also called FabB-645Fv (G4Sx2); FabB-645Fv (2xG4S)
Turning to B3, the Kd with human serum albumin [2] is 6.72 nM; in the assay with mouse serum albumin [3] it was 8.01 nM; with human serum albumin [4], 17.5 nM; in the assay with mouse serum albumin [5], 24.7 nM; with human serum albumin [6], 7.1 nM; with human serum albumin [7], 12.5 nM. For the same molecule, the results for the dissociation constant Kd in the assay with human serum albumin [8], with human serum albumin [9] and with human serum albumin [10] were 13.3 nM, 10.7 nM and 9 nM, respectively. The molecule further came in with a koff with human serum albumin [10] of 0.00016 s⁻¹. Also, the kon with human serum albumin [10] stood at 17800 M⁻¹ s⁻¹.

B4: FabB-didAb, -dAbL2 (CK-G4Sx2) & dAbH2 (CH1-G4Sx2) (bispecific antibody)
heavy: ASTKGPSVFPLAPSSKSTSGGTAALGCLVKDYFPEPVTVSWNSGALTSGVHTFPAVLQSSGLYSLSSVVTVPSSSLGTQTYICNVNHKPSNTKVDKKVEPKSCGGGGSGGGGSEVQLVESGGGLVQPGGSLRLSCAVSGFSLSRYAMTWVRQAPGKGLEWIGTITTGGNTNYANWAKGRFTISKDSTTVYLQMNSLRAEDTAVYYCARGGYVSYADATELSLWGQGTLVTVSS
light: RTVAAPSVFIFPPSDEQLKSGTASVVCLLNNFYPREAKVQWKVDNALQSGNSQESVTEQDSKDSTYSLSSTLTLSKADYEKHKVYACEVTHQGLSSPVTKSFNRGECGGGGSGGGGSDIVMTQSPSTLSASVGDRVTITCQASQSIGSRLAWYQQKPGKAPKLLIYYASTVASGVPSRFKGSGSGTEFTLTISSLQPDDFATYYCQSYDYSSSSSYAFGGGTKVEIK
notes: also called FabB-648Fv (G4Sx2); FabB-648Fv (2xG4S)
B4 yielded a Kd with mouse serum albumin [5] of 42.4 nM.

B5: FabB-645dsFv (S3×G4S), Fv heavy mutation Y100cA (bispecific antibody, V domains shown)
VH: EVQLLESGGGLVQPGGSLRLSCAVSGIDLSNYAINWVRQAPGKCLEWIGIIWASGTTFYATWAKGRFTISRDSTTVYLQMNSLRAEDTAVYYCARTVPGYSTAPAFDLWGQGTLVTVSS
VL: DIVMTQSPSSVSASVGDRVTITCQSSPSVWSNFLSWYQQKPGKAPKLLIYEASKLTSGVPSRFKGSGSGTDFTLTISSLQPEDFATYYCGGGYSSISDTTFGCGTKVEIK
Consider B5, for which, in the assay with human serum albumin [11], the affinity, expressed as Kd, was 87 nM; the dissociation rate constant (koff) was 0.00107 s⁻¹; the association rate constant (kon) was determined as 12300 M⁻¹ s⁻¹.

B6: Antibody 1 (Antibody 645) as humanised IgG (antibody, V domains shown)
VH: EVQLLESGGGLVQPGGSLRLSCAVSGIDLSNYAINWVRQAPGKGLEWIGIIWASGTTFYATWAKGRFTISRDSTTVYLQMNSLRAEDTAVYYCARTVPGYSTAPYFDLWGQGTLVTVSS
VL: DIVMTQSPSSVSASVGDRVTITCQSSPSVWSNFLSWYQQKPGKAPKLLIYEASKLTSGVPSRFKGSGSGTDFTLTISSLQPEDFATYYCGGGYSSISDTTFGGGTKVEIK
notes: tested as humanised IgG; one grafted VH and one grafted VL were designed for this antibody
For the molecule B6, the results for the dissociation constant (Kd) in the assay with human serum albumin [12], with mouse serum albumin [13] and in the assay with rat serum albumin were 0.82 nM, 2.9 nM and 7.9 nM, respectively.

B7: Antibody 2 (Antibody 648) as humanised IgG (antibody, V domains shown)
VH: EVQLVESGGGLVQPGGSLRLSCAVSGFSLSRYAMTWVRQAPGKGLEWIGTITTGGNTNYANWAKGRFTISKDSTTVYLQMNSLRAEDTAVYYCARGGYVSYADATELSLWGQGTLVTVSS
VL: DIVMTQSPSTLSASVGDRVTITCQASQSIGSRLAWYQQKPGKAPKLLIYYASTVASGVPSRFKGSGSGTEFTLTISSLQPDDFATYYCQSYDYSSSSSYAFGGGTKVEIK
notes: as for B6
As for B7, the values for the Kd with mouse serum albumin [13] and with rat serum albumin were 23 nM and 54 nM, respectively.
